This data set addresses T1, SRSF2 (UniProt Q01130 1-221).
T1 sequence: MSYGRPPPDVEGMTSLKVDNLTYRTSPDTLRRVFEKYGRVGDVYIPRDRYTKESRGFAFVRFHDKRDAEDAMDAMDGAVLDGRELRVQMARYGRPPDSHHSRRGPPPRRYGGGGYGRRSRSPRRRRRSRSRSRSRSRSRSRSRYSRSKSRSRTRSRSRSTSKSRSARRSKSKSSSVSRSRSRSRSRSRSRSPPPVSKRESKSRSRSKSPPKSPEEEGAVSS
Briefly: EMSA. A general note: A gel shift assay detects complexes by their altered migration in electrophoresis.

As for GCACGUAUUC (ssRNA) [Mut-SRSF2 RNA (CGUA)], the binding result is on record as “no binding”.

(Values after publication PMC4535357.)
